Data reported in patent US20220233552A1 (CONSEJO SUPERIOR DE INVESTIGACIONES CIENT FICAS CSIC, published 2022).
Numbering of substitutions follows the chain as printed. In names and notes the source's numbering stands.

Columns and labels:
[1] = biological target: T1, protein tyrosine phosphatase-1B (PTP1B) (human, UniProt P18031 1-435); assay: IL13Rα2 immunoprecipitation with mass spectrometry (U251 lysates) and reciprocal co-IP/Western blot in CRC, GBM and OC cell lines
T1 construct: Endogenous PTP1B of the cell lines, detected by co-immunoprecipitation, Western blot and mass spectrometry; also called PTPB1
T1 sequence (looked up): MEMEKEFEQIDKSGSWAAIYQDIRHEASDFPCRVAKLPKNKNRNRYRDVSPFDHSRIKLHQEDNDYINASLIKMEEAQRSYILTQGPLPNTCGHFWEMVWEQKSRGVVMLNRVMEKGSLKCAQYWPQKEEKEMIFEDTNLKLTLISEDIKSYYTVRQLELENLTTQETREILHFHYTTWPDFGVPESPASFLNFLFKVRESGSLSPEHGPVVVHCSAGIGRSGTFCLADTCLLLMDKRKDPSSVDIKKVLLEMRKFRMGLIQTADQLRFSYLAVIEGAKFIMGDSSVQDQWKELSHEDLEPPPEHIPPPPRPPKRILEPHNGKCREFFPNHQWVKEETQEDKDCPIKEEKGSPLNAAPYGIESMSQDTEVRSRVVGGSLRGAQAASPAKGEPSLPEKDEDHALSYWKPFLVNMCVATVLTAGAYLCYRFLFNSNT
From the text: (§1) FIG. 1. […] Protein position was tentatively assigned based on existing literature.
To characterize the protein interaction network of IL13Rα2, whole-cell lysates of the human GBM cell line U251 were immunoprecipitated and analyzed by mass spectrometry.

[2] = biological target: T1, protein tyrosine phosphatase-1B (PTP1B); assay: co-immunoprecipitation (IL13Rα2 IP, PTP1B Western blot) in RKO transfectants
From the text: as §1

B1: IL13Rα2 (wild type) (receptor, human, UniProt Q14627 27-380, looked up)
chain: DTEIKVNPPQDFEIVDPGYLGYLYLQWQPPLSLDHFKECTVEYELKYRNIGSETWKTIITKNLHYKDGFDLNKGIEAKIHTLLPWQCTNGSEVQSSWAETTYWISPQGIPETKVQDMDCVYYNWQYLLCSWKPGIGVLLDTNYNLFYWYEGLDHALQCVDYIKADGQNIGCRFPYLEASDYKDFYICVNGSSENKPIRSSYFTFQLQNIVKPLPPVYLTFTRESSCEIKLKWSIPLGPIPARCFDYEIEIREDDTTLVTATVENETYTLKTTNETRQLCFVVRSKVNIYCSDDGIWSEWSDKQCWEGEDLSKKTLLRFWLPFGFILILVIFVTGLLLRKPNTYPKMIPEFFCDT
notes: whole, on cells; Used as endogenous protein in lysates of human CRC, GBM and OC cell lines and as transfected wild type in RKO cells; also called IL13Rα2 WT; wild-type IL13Rα2
[1]
  binding result: binds

B2: IL13Rα2 Tyr369Phe mutant (receptor, human, UniProt Q14627 27-380, looked up)
chain: B1 chain with Y343F
notes: whole, on cells; immunoprecipitated from lysates; also called Y369F mutated form; mutant Tyr369Phe
[2]
  binding result: no binding
